Results: patent publication US20200308242A1

Legend:
[1] = target: T1, IFNα receptor on GloResponse ISRE-luc2P/HEK293 cells (UniProt P17181); assay: cell-based or functional assay
T1 sequence (looked up) 1: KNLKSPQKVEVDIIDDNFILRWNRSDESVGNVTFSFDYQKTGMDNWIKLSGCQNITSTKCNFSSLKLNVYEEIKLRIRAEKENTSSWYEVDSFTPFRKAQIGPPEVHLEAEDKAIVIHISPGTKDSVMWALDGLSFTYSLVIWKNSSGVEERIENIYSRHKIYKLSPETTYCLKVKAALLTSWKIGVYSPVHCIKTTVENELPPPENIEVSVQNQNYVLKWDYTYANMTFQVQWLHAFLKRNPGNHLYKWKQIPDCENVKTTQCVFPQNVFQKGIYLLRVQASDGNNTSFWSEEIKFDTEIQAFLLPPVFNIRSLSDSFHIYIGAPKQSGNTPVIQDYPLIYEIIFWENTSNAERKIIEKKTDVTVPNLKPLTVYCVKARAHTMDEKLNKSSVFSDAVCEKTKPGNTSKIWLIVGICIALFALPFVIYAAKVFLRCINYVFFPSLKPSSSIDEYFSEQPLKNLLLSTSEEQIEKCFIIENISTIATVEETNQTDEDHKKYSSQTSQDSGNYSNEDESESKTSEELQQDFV
T1 sequence (looked up) 2: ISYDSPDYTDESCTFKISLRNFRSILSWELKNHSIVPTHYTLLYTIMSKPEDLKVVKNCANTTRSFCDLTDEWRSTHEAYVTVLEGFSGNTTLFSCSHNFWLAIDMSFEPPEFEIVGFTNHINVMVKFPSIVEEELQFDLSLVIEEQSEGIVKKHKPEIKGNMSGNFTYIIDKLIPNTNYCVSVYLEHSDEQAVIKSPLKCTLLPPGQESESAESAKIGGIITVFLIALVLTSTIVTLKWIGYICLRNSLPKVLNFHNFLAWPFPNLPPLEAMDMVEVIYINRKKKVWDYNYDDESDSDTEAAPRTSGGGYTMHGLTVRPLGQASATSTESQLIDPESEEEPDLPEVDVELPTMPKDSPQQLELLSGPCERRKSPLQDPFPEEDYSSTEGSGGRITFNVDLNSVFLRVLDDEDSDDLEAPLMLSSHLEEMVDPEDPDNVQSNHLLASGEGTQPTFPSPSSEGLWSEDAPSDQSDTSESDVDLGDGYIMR

[2] = target: IL-2Rβ/IL-2Rγ receptor subunits on PathHunter U2OS IL-2Rβ/IL-2Rγ/(IL-2Rα) cells (UniProt P14784); assay: cell-based or functional assay

Row | Substance | EC50 of IL-15-induced IL-2Rβ/IL-2Rγ dimerisation (PathHunter U2OS chemiluminescence), +MMP-9 [2] [pM] | EC50, ISRE-luc2P/HEK293 luciferase reporter, +MMP9 [1] [pM] | also measured
1 | H16/L16-PVGLIG-hIFNα2a cleaved by MMP-9 (released hIFNα2a) (from UniProt P01563 24-188) (ligand) |  |  | EC50, ISRE-luc2P/HEK293 luciferase reporter, +MMP9, no pre incubation of the cells with H16/L16 antibody [1]: 20 pM; EC50, ISRE-luc2P/HEK293 luciferase reporter, +MMP9, pre incubation of the cells with H16/L16 antibody (to saturate IGF1-R binding sites) [1]: 20 pM
2 | NHS76-PVGLIG-hIL-15 cleaved by MMP-9 (released hIL-15) (from UniProt P40933 49-162) (ligand) | 8840 |  | 
3 | Recombinant human IFNα2a (from UniProt P01563 24-188) (ligand) |  | 50 | EC50, ISRE-luc2P/HEK293 luciferase reporter, -MMP9 [1]: 80 pM
4 | Recombinant human IL-15 (from UniProt P40933 49-162) (ligand) | 710 |  | EC50 of IL-15-induced IL-2Rβ/IL-2Rγ dimerisation (PathHunter U2OS chemiluminescence), -MMP-9 [2]: 720 pM
5 | NHS76-PVGLIG-hIFNα2a cleaved by MMP-9 (released hIFNα2a) (from UniProt P01563 24-188) (ligand) |  | 30 | 
6 | c9G4-PVGLIG-hIFNα2a cleaved by MMP-9 (released hIFNα2a) (from UniProt P01563 24-188) (ligand) |  | 20 | 
7 | NHS76-PVGLIG-hIFNα2a (from UniProt P01563 23-188) |  |  | EC50, ISRE-luc2P/HEK293 luciferase reporter, -MMP9 [1]: 5330 pM
8 | H16/L16-PVGLIG-hIL-15 cleaved by MMP-9 (released hIL-15) (from UniProt P40933 49-162) (ligand) | 2840 |  | 
9 | c9G4-PVGLIG-hIL-15 cleaved by MMP-9 (released hIL-15) (from UniProt P40933 49-162) (ligand) | 2070 |  | 
